The values that follow come from patent publication US20150056222A1 (Regeneron, published 2015).

For experiment [1], the target named is T1, hPRLR.mmh (soluble monomeric human PRLR) (human).
T1 construct: soluble monomeric construct
T1 chain: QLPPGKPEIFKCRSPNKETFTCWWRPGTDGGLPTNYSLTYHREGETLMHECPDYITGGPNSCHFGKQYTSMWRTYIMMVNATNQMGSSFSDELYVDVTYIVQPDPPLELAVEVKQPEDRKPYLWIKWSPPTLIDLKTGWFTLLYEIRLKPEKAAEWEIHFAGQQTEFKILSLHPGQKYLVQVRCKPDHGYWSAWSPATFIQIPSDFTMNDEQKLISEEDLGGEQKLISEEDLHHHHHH
Put plainly: SPR, 37C, mAb capture. On the procedure: (§1) Measurements were conducted on a T200 Biacore instrument. Kinetic association (kₐ) and dissociation (kd) rate constants were determined by processing and fitting the data to a 1:1 binding model using Scrubber 2.0 curve fitting software. Binding dissociation equilibrium constants (KD) and dissociative half-lives (t_{1/2}) were calculated from the kinetic rate constants as: KD (M)=kd/kₐ; and […].

Experiment [2] has as its target T2, hPRLR.mFc (soluble dimeric human PRLR) (human).
T2 construct: dimeric construct
T2 chain: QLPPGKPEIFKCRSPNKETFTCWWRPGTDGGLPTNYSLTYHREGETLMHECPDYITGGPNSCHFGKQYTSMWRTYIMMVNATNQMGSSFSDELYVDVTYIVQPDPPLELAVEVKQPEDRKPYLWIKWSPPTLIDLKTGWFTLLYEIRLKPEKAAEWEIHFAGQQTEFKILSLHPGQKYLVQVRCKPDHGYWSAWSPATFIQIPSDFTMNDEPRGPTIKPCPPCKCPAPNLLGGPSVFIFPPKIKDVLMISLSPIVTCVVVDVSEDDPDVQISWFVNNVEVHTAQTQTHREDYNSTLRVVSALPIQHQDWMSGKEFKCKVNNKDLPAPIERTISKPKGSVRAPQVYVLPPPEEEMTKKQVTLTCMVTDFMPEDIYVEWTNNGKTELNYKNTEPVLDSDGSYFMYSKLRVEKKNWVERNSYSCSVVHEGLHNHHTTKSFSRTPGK
Kind of experiment: SPR, 37C, mAb capture. The protocol: as §1
Background: Surface plasmon resonance follows binding to a sensor surface in real time, without labels.

Experiment [3] concerns the target T3, mfPRLR.mmh (soluble monomeric macaca fascicularis PRLR) (macaca fascicularis).
T3 construct: soluble monomeric construct; also called macaca fascicularis (mf) PRLR.mmh
T3 chain: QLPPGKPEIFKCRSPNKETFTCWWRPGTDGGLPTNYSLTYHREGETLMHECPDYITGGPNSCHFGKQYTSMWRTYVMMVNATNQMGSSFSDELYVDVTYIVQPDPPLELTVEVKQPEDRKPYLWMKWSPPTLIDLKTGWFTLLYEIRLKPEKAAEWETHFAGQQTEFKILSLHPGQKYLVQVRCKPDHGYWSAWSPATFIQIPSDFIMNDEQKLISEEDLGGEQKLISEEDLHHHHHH
Kind of experiment: SPR, 37C, mAb capture. On the procedure: as §1

In experiment [4] the target is T4, human prolactin receptor (PRLR) on cells (human, UniProt P16471 25-622).
T4 sequence: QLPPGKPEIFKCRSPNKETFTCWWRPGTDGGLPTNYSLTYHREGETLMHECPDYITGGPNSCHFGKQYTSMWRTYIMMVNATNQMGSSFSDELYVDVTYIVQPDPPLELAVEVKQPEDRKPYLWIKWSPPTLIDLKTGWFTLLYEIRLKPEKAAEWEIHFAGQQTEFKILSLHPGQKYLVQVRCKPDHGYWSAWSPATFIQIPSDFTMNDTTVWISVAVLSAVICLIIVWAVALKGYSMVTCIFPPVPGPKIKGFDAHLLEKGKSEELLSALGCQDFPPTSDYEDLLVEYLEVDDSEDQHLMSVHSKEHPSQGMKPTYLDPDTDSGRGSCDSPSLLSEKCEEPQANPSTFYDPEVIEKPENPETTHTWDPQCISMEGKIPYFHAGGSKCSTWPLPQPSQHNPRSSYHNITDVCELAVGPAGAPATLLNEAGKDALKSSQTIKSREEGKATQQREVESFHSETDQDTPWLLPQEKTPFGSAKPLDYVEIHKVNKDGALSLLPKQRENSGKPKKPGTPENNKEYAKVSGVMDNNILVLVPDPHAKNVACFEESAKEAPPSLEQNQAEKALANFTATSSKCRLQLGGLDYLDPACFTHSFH
Kind of experiment: cell-based or functional assay.

In experiment [5] the target is T4, human prolactin receptor (PRLR) on cells. Put plainly: FACS, HEK293/hPRLR cells. Note: test concentration or dose not given here.
For experiment [6], the target named is T5, mouse PRLR on HEK293 cells (mouse, UniProt Q08501 20-608). Note: test concentration or dose not given here.
T5 construct: whole, on cells; also called mPRLR; HEK293/mPRLR
T5 sequence (looked up): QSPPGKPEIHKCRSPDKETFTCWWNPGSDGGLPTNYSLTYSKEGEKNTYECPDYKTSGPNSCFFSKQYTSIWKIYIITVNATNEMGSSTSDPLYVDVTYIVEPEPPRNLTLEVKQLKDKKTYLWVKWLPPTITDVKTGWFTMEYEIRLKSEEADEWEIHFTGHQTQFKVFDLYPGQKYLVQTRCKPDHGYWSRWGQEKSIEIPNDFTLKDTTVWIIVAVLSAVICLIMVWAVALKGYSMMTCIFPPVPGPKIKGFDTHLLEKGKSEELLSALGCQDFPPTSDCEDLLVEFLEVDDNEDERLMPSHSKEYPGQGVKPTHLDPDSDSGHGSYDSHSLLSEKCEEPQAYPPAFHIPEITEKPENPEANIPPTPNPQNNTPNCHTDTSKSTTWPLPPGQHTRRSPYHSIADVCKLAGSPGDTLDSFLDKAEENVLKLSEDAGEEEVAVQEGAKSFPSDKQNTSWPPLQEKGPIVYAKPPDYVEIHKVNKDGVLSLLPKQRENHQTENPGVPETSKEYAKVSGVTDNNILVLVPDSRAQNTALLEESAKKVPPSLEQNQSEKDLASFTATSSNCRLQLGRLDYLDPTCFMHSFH
Put plainly: FACS, HEK293/mPRLR cells. (In general: Flow cytometry measures light scatter and fluorescence of single cells or particles in a stream.)

For experiment [7], the target named is T6, monkey (macaca fascicularis) PRLR on HEK293 cells (macaca fascicularis, UniProt A0A2K5WXK1 25-619).
T6 construct: also called mfPRLR; HEK293/mfPRLR
T6 sequence: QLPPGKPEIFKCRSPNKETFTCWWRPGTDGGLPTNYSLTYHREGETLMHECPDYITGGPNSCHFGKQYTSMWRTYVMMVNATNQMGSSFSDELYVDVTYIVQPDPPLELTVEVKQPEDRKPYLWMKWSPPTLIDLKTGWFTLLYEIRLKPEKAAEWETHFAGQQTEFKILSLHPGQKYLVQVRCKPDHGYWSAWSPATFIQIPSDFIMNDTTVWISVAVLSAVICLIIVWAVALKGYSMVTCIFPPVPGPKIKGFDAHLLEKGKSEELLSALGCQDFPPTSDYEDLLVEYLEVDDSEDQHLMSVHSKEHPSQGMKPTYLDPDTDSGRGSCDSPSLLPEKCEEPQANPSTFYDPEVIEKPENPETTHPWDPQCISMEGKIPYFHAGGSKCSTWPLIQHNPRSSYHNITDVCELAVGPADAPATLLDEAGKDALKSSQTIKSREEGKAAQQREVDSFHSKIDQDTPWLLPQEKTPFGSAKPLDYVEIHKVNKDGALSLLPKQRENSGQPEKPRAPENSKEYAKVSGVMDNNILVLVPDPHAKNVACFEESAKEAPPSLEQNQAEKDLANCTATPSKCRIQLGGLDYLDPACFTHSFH
Put plainly: FACS, HEK293/mfPRLR cells. Note: test concentration or dose not given here.

Experiment [8] addresses T4, human prolactin receptor (PRLR) on cells. Kind of experiment: FACS, T47D cells (native PRLR). Note: test concentration or dose not given here.

B1: H1H6807P (antibody, V domains shown)
VH: QVQLVESGGGVVQPGRSLRLSCAASGFTFSDYNMHWVRQAPGKGLEWVAVIWYDGSNKHYADSVKGRFTISRDNSKNTLYLQMNSLRAEDTAVYYCARDGFTIFGMVLDYWGQGTLVTVSS
VL: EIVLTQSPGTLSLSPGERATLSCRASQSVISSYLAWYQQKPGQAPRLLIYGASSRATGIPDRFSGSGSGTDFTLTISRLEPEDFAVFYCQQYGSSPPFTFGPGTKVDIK
notes: human IgG1 Fc (H1H)
For the molecule B1, the T½ in experiment [1] came to 34 min; in experiment [2], 105 min; in experiment [3] it was 32 min. In addition, the “% Internalization relative to Control I (alexa488 intensity in intracellular vesicles at 37 C, T47D cells)” value (“% Internalization relative to Control I” below) in experiment [4] came out at 147%. The “FACS Cell Binding (Fold Above Background)” value turned out to be 32 fold above background in experiment [5], 2 fold above background in experiment [6], 27 fold above background in experiment [7] and 34 fold above background in experiment [8].

B2: H1H6795P (antibody, human IgG1, V domains shown)
VH: QVQLVQSGAEVKKPGASVKVSCKASGYTFGTSGITWVRQAPGQGLEWMGWSSAYNGKTDYAQKFQDRVTMTTDTSTTTGYMEMRSLTSDDTAVYYCTTVVRRPFDFWGQGTLVTVSS
VL: DIQMTQSPSSLSASVGDRVTITCRASQDINNFLAWFQQKPGKAPKSLIYAASSLQSGVPSKFSGGGSGTDFALTISSLQPEDFATYYCQQYSSYPITFGQGTRLEIK
notes: human IgG1 Fc (H1H)
As for B2, the T½ in experiment [1] was 2 min; in experiment [2], 149 min; in experiment [3], 2 min. Further, the “% Internalization relative to Control I” value in experiment [4] was determined as 151%. Besides, the “FACS Cell Binding (Fold Above Background)” value was found to be 1 fold above background in experiment [5], 1 fold above background in experiment [6], 22 fold above background in experiment [7] and 34 fold above background in experiment [8].

B3: H1H6797P (antibody, human IgG1, V domains shown)
VH: EVQLVESGGGLVQPGGSLRLSCIVSGFTFSGSWMSWVRQLPGKGLEWVANIKEDGSDSYYVDSVEGRFTISRDNAKSSLYLQMNSLRVDDTAVYFCARARTVPLHYWGQGTLVTVSS
VL: DIQMTQSPSTLSASVGDRVTITCRASQSINIWLAWYQQKPGKAPKLLIYRASYLESGVPSSFAGGGSGTEFTLTISSLQPDDFGTYYCQHYNSYPFTFGQGTKLEIK
notes: human IgG1 Fc (H1H)
On to B3, for which the figures for the T½ in experiment [1], in experiment [2] and in experiment [3] were 1 min, 93 min and 1 min, respectively. Also, in experiment [4], the “% Internalization relative to Control I” value stood at 145%. For the same molecule, the “FACS Cell Binding (Fold Above Background)” value in experiment [5] was found to be 1 fold above background; in experiment [6], 2 fold above background; in experiment [7], 25 fold above background; in experiment [8], 38 fold above background.

B4: H1H6953N (antibody, human IgG1, V domains shown)
VH: EVQLLESGGGLVQPGGTLRLSCAASGFTFSAYAMSWVRQAPGKGLEWVSSINVRAGDTYYADSVKGRFTISRDNSKNTLFLLMNSLRAEDTAAYYCAKARYSSNWGFDFWGQGTLVTVSS
VL: DIVMTQSPDSLTVSLGARTTINCQSSQTILHSSNNHNYLAWYQQKPGLPPKLLIYWSSTRESGVPDRFSGSGSGTDFTLTISSLQAEDVAIYYCQQYSNTPYTFGQGTKLEIN
notes: also called H1M6953N
Consider B4, for which the results for the T½ in experiment [1], in experiment [2] and in experiment [3] were 9.4 min, 68 min and 4.5 min, respectively. In addition, the “% Internalization relative to Control I” value in experiment [4] was found to be 154%. In addition, the “FACS Cell Binding (Fold Above Background)” value in experiment [5] amounted to 37 fold above background; in experiment [6], 2 fold above background; in experiment [7], 29 fold above background; in experiment [8], 40 fold above background.

B5: H1H6790P (antibody, human IgG1, V domains shown)
VH: EVQLVESGGGLVQPGGSLRLSCAASGFTFSSYAMTWVRQAPGKGLEWVSAITGSVGNTYYADSVKGRFTISRDNSKNTLYLQMNSLGAEDTAEYYCAKGAGMTTNWYLDLWGRGTLVTVSS
VL: DIVMTQSPDSLAVSLGARATINCKSSQSVLYSSNNQNYLTWYQQKPGQPPKLLIKWASTRESGVPDRFSGSGSGTDFTLTISSLQAEDVAVYYCQQYASSPYTFGQGTKLEIK
notes: human IgG1 Fc (H1H)
Take B5: the T½ in experiment [1] was 4 min; in experiment [2], 58 min; in experiment [3] it was 4 min. In experiment [4], the “% Internalization relative to Control I” value worked out at 147%. Besides, the “FACS Cell Binding (Fold Above Background)” value in experiment [5] is 37 fold above background; in experiment [6] it was 1 fold above background; in experiment [7], 24 fold above background; in experiment [8], 34 fold above background.

B6: H1H6804P (antibody, human IgG1, V domains shown)
VH: QVTLKESGPVLVKPTQTLSLTCTVSGFSLSDAGMGVSWIRQPPGKALEWLAHIFSNDGKSYSTSLKSRLTISKDTSKRQVVLTMTNMDPVDTATYYCARIRTGTYSLYLDYWGQGTLVTVSS
VL: DIQMTQSPSSLSASVGDRVTITCRASQSINSYLNWYQQKPGKAPKLLLYFASSLQSGVPSRFSGSGSGTDFTLTISSLQPEDFASYYCQESYSTPWTFGQGTKVEIK
notes: human IgG1 Fc (H1H)
Regarding B6, the T½ in experiment [1] amounted to 3 min; in experiment [2], 56 min; in experiment [3], 3 min. For the same molecule, the “% Internalization relative to Control I” value in experiment [4] was found to be 139%. The “FACS Cell Binding (Fold Above Background)” value in experiment [5] stood at 1 fold above background; in experiment [6] it was 1 fold above background; in experiment [7], 29 fold above background; in experiment [8], 34 fold above background.
